From patent publication US20240026037A1 (Memorial Sloan Kettering, published 2024) come the findings set out here.

Experiment [1] addresses T1, Human GPA33 (recombinant protein, Novoprotein) (human, UniProt Q99795 22-235).
T1 construct: Bought recombinant protein immobilized on a CM5 chip; also called GPA33 antigen; tumor antigen GPA33
T1 sequence: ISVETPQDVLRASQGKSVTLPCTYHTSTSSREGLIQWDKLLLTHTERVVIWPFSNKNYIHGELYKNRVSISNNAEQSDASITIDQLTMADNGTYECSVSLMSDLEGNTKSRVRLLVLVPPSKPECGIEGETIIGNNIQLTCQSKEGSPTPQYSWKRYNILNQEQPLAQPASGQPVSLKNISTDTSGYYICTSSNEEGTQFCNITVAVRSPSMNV
In words: SPR (Biacore), human GPA33 immobilized on CM5 chip, two-state fit, kd1. The procedure, abridged:
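The off-rate (kd1) came from surface plasmon resonance, with sensorgrams fitted to a two-state binding model to derive the kinetic parameters. Recombinant human GPA33 from Novoprotein was immobilised on a CM5 chip in a Biacore T100. Antibodies were flowed over at five concentrations, made as 2-fold serial dilutions starting at 20 nM. The parent IgG1 was run at 25° C, and the bispecific formats at both 25° C and 37° C.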
In general terms: SPR reads the build-up and loss of mass on a sensor chip optically.

Experiment [2] deals with T2, Human GPA33 on GPA33+ colorectal cancer cell lines (Colo 205, LS 174T, SW 1222) (human, UniProt Q99795 22-319).
T2 construct: Endogenous GPA33 on human colorectal cancer cell lines; also called surface human GPA33; GPA33+ tumor cell lines
T2 sequence: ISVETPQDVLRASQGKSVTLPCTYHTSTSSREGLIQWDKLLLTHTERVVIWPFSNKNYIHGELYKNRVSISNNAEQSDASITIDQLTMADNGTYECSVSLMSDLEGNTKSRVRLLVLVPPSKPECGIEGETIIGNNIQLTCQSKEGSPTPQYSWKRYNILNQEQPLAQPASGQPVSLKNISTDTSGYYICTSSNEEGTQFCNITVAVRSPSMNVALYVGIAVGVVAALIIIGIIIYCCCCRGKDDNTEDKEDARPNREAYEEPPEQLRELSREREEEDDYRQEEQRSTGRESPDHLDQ
The experiment is described as follows: FACS binding to Colo205 cells (GPA33+).

Experiment [3] concerns the target T1, Human GPA33 (recombinant protein, …). In words: SPR (Biacore), human GPA33 immobilized on CM5 chip, two-state fit, ka1. The protocol: (§1) SPR analysis. Human GPA33 (Novoprotein, Summit, NJ) was immobilized on CM5 chips. Five concentrations of 2-fold serially diluted huA33 IgG1 or huA33-BsAbs (starting at 20 nM) were flowed over the chip using a Biacore™ T100 system (GE Healthcare, Chicago, IL). Binding kinetics of huA33 were measured at 25° C. and binding kinetics of huA33-BsAbs were measured at both 25° C. and 37° C. The sensorgrams were fitted with two state binding model for both to derive kinetic parameters.

Experiment [4] has the same target. The experiment is described as follows: SPR (Biacore), human GPA33 immobilised on the chip; KD relative to that of TC170. The procedure, abridged: (§2)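 On a Biacore system, antibodies at five concentrations (2-fold serial dilutions, highest 20 nM) were passed over recombinant human GPA33 (Novoprotein) immobilised on a CM5 sensor chip. Rate constants and the dissociation constant (KD) came from kinetic fitting of the surface plasmon resonance sensorgrams. Each KD is expressed relative to the KD of a reference molecule, as a ratio.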

Experiment [5] deals with T2, Human GPA33 on GPA33+ colorectal cancer …. The experiment is described as follows: FACS binding to SW1222 cells (GPA33+).
For experiment [6] the target is unchanged. In words: FACS binding to LS174T cells (GPA33+).
The target is the same in experiment [7]. In words: flow cytometry, Colo 205 cells; Colo 205 cells.
For experiment [8] the target is unchanged. The experiment is described as follows: flow cytometry, SW 1222 cells.
For experiment [9], the target named is T1, Human GPA33 (recombinant protein, …). In words: SPR (Biacore), human GPA33 immobilized on CM5 chip, two-state fit. Here is the method: as §1
For experiment [10], the target named is T2, Human GPA33 on GPA33+ colorectal cancer …. In words: flow cytometry, LS 174T cells.
For experiment [11], the target named is T1, Human GPA33 (recombinant protein, …). The experiment is described as follows: SPR (Biacore), human GPA33 immobilised on the chip; KD relative to that of BC015. The procedure, abridged:
as §2

B1: TC160 (bispecific antibody)
chain: DIQMTQSQSSLSTSVGDRVTITCKASQNVRTVVAWYQQKPGKSPKTLIYLASNRHTGVPSRFSGSGSGTEFTLTISNVQPEDFADYFCLQHWSYPLTFGSGTKLEIKRGGGGSGGGGSGGGGSGGGGSGGGGSGGGGSEVQLVESGGGLVKPGGSLRLSCAASGFAFSTYDMSWVRQAPGKRLEWVATISSGGSYTYYLDSVKGRFTISRDNAKNSLYLQMNSLRAEDTAVYYCAPTTVVPFAYWGQGTLVTVSSGGGGSGGGGSGGGGSGGGGSHVQLVESGGGLVQPGGSLRLSCAASGFSLTDYGVHWVRQAPGKGLEWLGVIWSGGGTAYNTALISRFTISRDNSKNTLYLQMNSLRAEDTAVYYCARRGSYPYNYFDAWGCGTLVTVSSGGGGSGGGGSGGGGSGGGGSGGGGSGGGGSQAVVTQEPSLTVSPGGTVTLTCGSSTGAVTASNYANWVQQKPGQCPRGLIGGHNNRPPGVPARFSGSLLGGKAALTLLGAQPEDEAEYYCALWYSDHWVIGGGTKLTVLGTPLGDTTHTSGKPLDGEYFTLQIRGRERFEMFRELNEALELKDAQAGKEPGGSGGAPHHHHHH
notes: Previously described GPA33xDOTA SADA clone, with the other VH/VL orientation than TC159; Carries the p53 SADA (tetramerization) domain
For the molecule B1, the koff in experiment [1] came to 0.00202 s⁻¹. In addition, the results for the “fold change of binding EC50 (relative to TC170, lower is better)” value in experiment [2], in experiment [5] and in experiment [6] were 1.62, 0.22 and 1.81, respectively. In addition, the kon in [3] is 3.43e+06 M⁻¹ s⁻¹. In experiment [4], the “Fold change of KD (relative to TC170, lower is better)” value came to 3.4. This molecule also had an EC50 in experiment [7] of 1.2 nM. Further, the IC50 in experiment [8] turned out to be 0.36 nM; in experiment [10], 0.56 nM. The Kd in experiment [9] is 0.0518 nM. Further, the ka2 in experiment [9] is 0.00678 s⁻¹. The kd2 in experiment [9] worked out at 0.000654 s⁻¹.

B2: BC155 (bispecific antibody, human IgG1, kappa, N297A)
heavy: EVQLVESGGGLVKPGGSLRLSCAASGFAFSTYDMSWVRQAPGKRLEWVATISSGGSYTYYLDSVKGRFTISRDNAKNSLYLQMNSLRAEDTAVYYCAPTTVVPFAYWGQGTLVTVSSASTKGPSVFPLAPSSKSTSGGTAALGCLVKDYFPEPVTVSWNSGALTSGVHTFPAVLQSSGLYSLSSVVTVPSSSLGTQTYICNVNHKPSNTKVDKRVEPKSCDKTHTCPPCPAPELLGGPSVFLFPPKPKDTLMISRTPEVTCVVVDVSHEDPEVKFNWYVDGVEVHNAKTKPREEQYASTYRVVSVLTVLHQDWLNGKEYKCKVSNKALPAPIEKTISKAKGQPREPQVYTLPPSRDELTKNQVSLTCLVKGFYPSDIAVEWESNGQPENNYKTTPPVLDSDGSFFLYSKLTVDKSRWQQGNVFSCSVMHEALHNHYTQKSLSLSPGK
light: DIQMTQSQSSLSTSVGDRVTITCKASQNVRTVVAWYQQKPGKSPKTLIYLASNRHTGVPSRFSGSGSGTEFTLTISNVQPEDFADYFCLQHWSYPLTFGSGTKLEIKRTVAAPSVFIFPPSDEQLKSGTASVVCLLNNFYPREAKVQWKVDNALQSGNSQESVTEQDSKDSTYSLSSTLTLSKADYEKHKVYACEVTHQGLSSPVTKSFNRGECTSGGGGSGGGGSGGGGSHVQLVESGGGLVQPGGSLRLSCAASGFSLTDYGVHWVRQAPGKGLEWLGVIWSGGGTAYNTALISRFTISRDNSKNTLYLQMNSLRAEDTAVYYCARRGSYPYNYFDAWGCGTLVTVSSGGGGSGGGGSGGGGSGGGGSGGGGSGGGGSQAVVTQEPSLTVSPGGTVTLTCGSSTGAVTASNYANWVQQKPGQCPRGLIGGHNNRPPGVPARFSGSLLGGKAALTLLGAQPEDEAEYYCALWYSDHWVIGGGTKLTVLG
notes: Previously described GPA33xDOTA IgG-[L]-scFv clone; The light chain entry carries the anti-DOTA scFv at its C-terminus
Take B2: the koff in experiment [1] came to 0.00212 s⁻¹. Moreover, the kon in experiment [3] is 4.13e+06 M⁻¹ s⁻¹. In addition, the “Fold change of KD (relative to BC015, lower is better)” value in experiment [11] came to 1.45. Moreover, in experiment [9], the Kd was 0.171 nM, the ka2 worked out at 0.00328 s⁻¹ and the kd2 was found to be 0.00164 s⁻¹.

B3: BC178 (bispecific antibody)
heavy: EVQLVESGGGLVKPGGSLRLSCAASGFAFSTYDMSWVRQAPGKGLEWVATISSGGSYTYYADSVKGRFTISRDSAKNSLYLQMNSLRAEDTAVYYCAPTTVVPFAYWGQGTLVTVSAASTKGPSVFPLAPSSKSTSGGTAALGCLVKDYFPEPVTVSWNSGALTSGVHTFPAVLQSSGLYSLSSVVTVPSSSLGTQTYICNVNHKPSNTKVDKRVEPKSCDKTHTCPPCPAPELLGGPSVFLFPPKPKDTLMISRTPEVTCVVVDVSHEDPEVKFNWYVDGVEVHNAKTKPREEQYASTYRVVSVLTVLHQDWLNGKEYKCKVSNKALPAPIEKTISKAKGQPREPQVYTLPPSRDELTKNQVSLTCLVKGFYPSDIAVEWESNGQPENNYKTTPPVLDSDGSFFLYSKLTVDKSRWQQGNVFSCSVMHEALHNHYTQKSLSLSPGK
light: DIQMTQSPSSLSTSVGDRVTITCKASQNVRTVVAWYQQKPGKAPKTLIYLASNRHSGVPSRFSGSGSGTEFTLTISNLQPEDFATYYCLQHWSYPLTFGSGTKLEVKRTVAAPSVFIFPPSDEQLKSGTASVVCLLNNFYPREAKVQWKVDNALQSGNSQESVTEQDSKDSTYSLSSTLTLSKADYEKHKVYACEVTHQGLSSPVTKSFNRGECTSGGGGSGGGGSGGGGSHVQLVESGGGLVQPGGSLRLSCAASGFSLTDYGVHWVRQAPGKGLEWLGVIWSGGGTAYNTALISRFTISRDNSKNTLYLQMNSLRAEDTAVYYCARRGSYPYNYFDAWGCGTLVTVSSGGGGSGGGGSGGGGSGGGGSGGGGSGGGGSQAVVTQEPSLTVSPGGTVTLTCGSSTGAVTASNYANWVQQKPGQCPRGLIGGHNNRPPGVPARFSGSLLGGKAALTLLGAQPEDEAEYYCALWYSDHWVIGGGTKLTVLG
Consider B3, for which, in experiment [1], the koff came out at 0.000511 s⁻¹. Further, the kon in experiment [3] turned out to be 5.5e+06 M⁻¹ s⁻¹. For the same molecule, in experiment [9], the Kd stood at 0.00792 nM, the ka2 turned out to be 0.0541 s⁻¹ and the kd2 was found to be 0.00504 s⁻¹.

B4: BC105 (bispecific antibody, human IgG1, kappa, N297A)
heavy: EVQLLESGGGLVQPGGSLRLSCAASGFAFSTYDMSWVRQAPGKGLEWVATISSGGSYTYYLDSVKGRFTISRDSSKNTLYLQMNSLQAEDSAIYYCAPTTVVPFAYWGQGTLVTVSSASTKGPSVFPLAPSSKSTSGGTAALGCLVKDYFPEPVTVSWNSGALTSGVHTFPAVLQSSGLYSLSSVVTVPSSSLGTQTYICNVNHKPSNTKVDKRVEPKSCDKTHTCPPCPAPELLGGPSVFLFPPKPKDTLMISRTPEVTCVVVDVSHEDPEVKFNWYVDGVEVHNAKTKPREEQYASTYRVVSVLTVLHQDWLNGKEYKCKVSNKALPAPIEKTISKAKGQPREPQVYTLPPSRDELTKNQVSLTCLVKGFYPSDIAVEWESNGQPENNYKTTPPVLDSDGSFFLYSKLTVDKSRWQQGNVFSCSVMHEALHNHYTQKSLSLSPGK
light: DIQMTQSPSSLSVSVGDRVTITCKASQNVRTVVAWYQQKPGLAPKTLIYLASNRHTGVPSRFSGSGSGTDFTFTISSLQPEDIATYFCQQHWSYPLTFGQGTKVEVKRTVAAPSVFIFPPSDEQLKSGTASVVCLLNNFYPREAKVQWKVDNALQSGNSQESVTEQDSKDSTYSLSSTLTLSKADYEKHKVYACEVTHQGLSSPVTKSFNRGECGGGGSGGGGSASHVKLQESGPGLVQPSQSLSLTCTVSGFSLTDYGVHWVRQSPGKGLEWLGVIWSGGGTAYNTALISRLNIYRDNSKNQVFLEMNSLQAEDTAMYYCARRGSYPYNYFDAWGCGTTVTVSSGGGGSGGGGSGGGGSQAVVIQESALTTPPGETVTLTCGSSTGAVTASNYANWVQEKPDHCFTGLIGGHNNRPPGVPARFSGSLIGDKAALTIAGTQTEDEAIYFCALWYSDHWVIGGGTRLTVLG
notes: Previously described GPA33xDOTA IgG-[L]-scFv clone; The light chain entry carries the anti-DOTA scFv at its C-terminus; also called GPA33 BsAb-IgG (BC105); GPA33 clone BC105 BsAb
As to B4, the koff in experiment [1] came to 0.0236 s⁻¹. Further, the kon in experiment [3] was 4.43e+06 M⁻¹ s⁻¹. Further, in [11], the “Fold change of KD (relative to BC015, lower is better)” value turned out to be 10.2. In experiment [9], the Kd came to 1.21 nM, the ka2 was found to be 0.00238 s⁻¹ and the kd2 came out at 0.000697 s⁻¹.

As usually defined, the koff is the rate constant with which the complex falls apart. As usually defined, the kon is the rate constant with which the complex forms. For orientation: EC50 means the concentration that produces a half-maximal response. The IC50 is the point on the concentration scale where inhibition reaches its midpoint. The term Kd denotes the constant that tells how readily two partners part at equilibrium.
